Data taken from patent US8114974B2, “Engineered microorganisms with enhanced fermentation activity” (Verdezyne, Inc., priority 2009, dated 2012).

What was measured:
xylose isomerase [1] = experiment: Heterologous xylose isomerase expression in yeast (active yes/no); type: cell-based, Saccharomyces cerevisiae; conditions: xylose isomerase of the donor organism expressed in engineered yeast (S. cerevisiae)
xylose isomerase [2] = experiment: In vitro xylose isomerase activity assay (sorbitol dehydrogenase/NADH coupled, A340; Km, specific activity, Ki for xylitol); type: biochemical, Saccharomyces cerevisiae
Protocol: About 20 μg of soluble whole cell extract was incubated in the presence of 100 mM Tris, pH 7.5, 10 mM MgCl2, 0.15 mM NADH (Sigma, St. Louis, Mo.), and about 2 U sorbitol dehydrogenase (Roche) at about 30° C. […] A Beckman DU-800 was utilized with an Enzyme Mechanism software package (Beckman Coulter, Inc.), and the change in the A340 was monitored for 2-3 minutes.
Approximately 20 μg of soluble whole cell extract from each transformed cell line, prepared using Y-PER plus reagent as described above, was incubated in a solution containing about 100 mM Tris, pH 7.5, 10 mM MgCl ? 2, 0.15 mM NADH (Sigma, St. Louis, Mo.), and 2 U Sorbitol Dehydrogenase (SDH) (Roche, Indianapolis, Ind.) at about 30° C. […] A Beckman DU-800 spectrophotometer was utilized with an Enzyme Mechanism software package (Beckman Coulter, Inc, Brea, Calif.), and the change in the A340 was monitored for 2-3 minutes.
Approximately 20 μg of soluble whole cell extract from each transformed cell line was prepared using Y-PER plus reagent as described above was incubated in a solution containing about 100 mM Tris, pH 7.5, 10 mM MgCl2, 0.15 mM NADH (Sigma, St. Louis, Mo.), and 2 U sorbitol dehydrogenase (SDH) (Roche, Indianapolis, Ind.) at about 30° C. […] A Beckman DU-800 spectrophotometer was utilized with an Enzyme Mechanism software package (Beckman Coulter, Inc, Brea, Calif.), and the change in the A340 was monitored for 2-3 minutes.
Approximately 20 μg of soluble whole cell extract from each transformed cell line was prepared using Y-PER plus reagent as described above was incubated in a solution containing about 100 mM Tris, pH 7.5, 10 mM MgCl ? .2, 0.15 mM NADH (Sigma, St. Louis, Mo.), and 2 U Sorbitol Dehydrogenase (SDH) (Roche, Indianapolis, Ind.) at about 30° C. […] A Beckman DU-800 spectrophotometer was utilized with an Enzyme Mechanism software package (Beckman Coulter, Inc, Brea, Calif.), and the change in the A340 was monitored for 2-3 minutes.
The Clostridiales enzyme was further characterized at 1974 μg to confirm the presence of activity.

[3] = tested on: 2-keto-3-deoxygluconate-6-phosphate aldolase (EDA); experiment: EDA activity assay with saturating amounts of E. coli EDD extract (LDH/NADH coupled); type: biochemical, Saccharomyces cerevisiae; conditions: for EDA activity (comparison in words): saturating E. coli EDD extract
Protocol: EDA genes isolated from a variety of sources were expressed in yeast and evaluated independently of EDA activity, to identify EDA activities suitable of inclusion in an engineered yeast strain. […] The activity of integrated EDAs in Thermosacc-Gold haploids, were also evaluated in this manner. The table below describes oligonucleotide primers used to isolate the various EDA genes.
EDA extracts were prepared using the following protocol. Day 1
Grow 5 ml LB-Kan preps of BF1055 (BL21/DE3 with pET26b empty vector) and BF1706 (BL21DE3 with pET26b+E. coli EDD).
Grow 50 ml LB-Kan prep of BF1055, 2% (v/v) inoculate.
Grow 50 ml prep of BF1706 using Novagen's Overnight Express (46.45 ml LB-Kan, 1 ml solution 1, 2.5 ml solution 2, 50 μl solution 3, 5 μl of 1M MnCl2, 50 μl of 0.5 M FeCl2), 2% (v/v) inoculate.
Inoculate to OD600 of 0.2.
EDD extractions (adapted from Chemyan et al, Protein Science 16:2368-2377, 2007): • 1) Pellet cells in 50 ml conical tubes, 4° C., 3,000 rpm, 10 mins, discard supernatant. • 2) Resuspend in 2 ml degassed PDGH buffer (20 mM MES pH 6.5, 30 mM NaCl, 5 mM • MnCl2, 0.5 mM FeCl2, 10 mM 2-mercaptoethanol, 10 mM cysteine, sparged with nitrogen gas). Move to hungate tube. • 3) Add 0.1% Triton X-100, 10 ng/ml DNase, 10 μg/ml PMSF, 10 μg/ml TAME (Nα-(p-toluene sulfonyl)-L-arginine methyl ester), 100 μg/ml lysozyme. • 4) Sparge hungate tube with nitrogen gas, cap and seal. Incubate 2 hours at 37° C., swirl occasionally. • 5) Clarify by centrifugation in 2-ml tube, 4° C., 10 mins, 14,000 rpm. Keep supernatant. • 6) Treat with 150 mM pyruvate and 10 mM sodium cyanoborohydride (work in hood) to inactivate aldolase activity. Incubate 30 mins at room temperature. • 7) During incubation, pre-equilibrate PD-10 column from GE • a. Remove top cap, pour off storage buffer. • b. Cut off bottom tip, fit in 50 ml conical with adapter. • c. Pour 5 ml of 20 mM MES buffer, pH 6.5 (total of 5 times). Discard flow-through. • 8) Run sample through column, then add MES buffer to a total of 2.5 ml volume added. Discard flow-through. • 9) Run 3.5 ml 20 mM MES pH 6.5 buffer to elute protein. Discard column in appropriate waste receptacle. • 10) Perform Bradford assay (1:10 or 1:20 dilution). EDA extractions: • 1) Spin down in 50 ml conicals, 4° C., 3,400 rpm, 5 mins. Wash 2× with 25 ml water. • 2) Resuspend in 1 ml lysis buffer (50 mM Tris-HCl, pH 7, 10 mM MgCl2, 1× protease inhibitor. […]
Each reaction contains 50 mM Tris-HCl, pH 7, 10 mM MgCl2, 0.15 mM NADH, 15 μg LDH, saturating amounts of EDD determined empirically (usually ˜100 μg), 1-50 μg EDA (depending on level of activity), and 1 mM 6-phosphogluconate. Reactions are started by the addition of 6-phosphogluconate and monitored for 5 mins at 30° C.

[4] = chimeric variants, soluble whole cell extract, xylose 40-500 mM

Thermus thermophilus: xylose isomerase of this donor organism
Active? (yes/no) (xylose isomerase [1]): Yes

Bacteroides thetaiotaomicron: xylose isomerase of this donor organism
Active? (yes/no) (xylose isomerase [1]): Yes

Actinoplanes missouriensis: xylose isomerase of this donor organism
Active? (yes/no) (xylose isomerase [1]): No

Streptomyces rubiginosus: xylose isomerase of this donor organism
Active? (yes/no) (xylose isomerase [1]): No

Piromyces: xylose isomerase from Piromyces strain E2 (SEQ ID NO: 35)
Specific Activity (xylose isomerase [2]; G179A mutant kinetic assays, xylose 40-500 mM): 2.02 µmol/min/mg | Specific Activity (xylose isomerase [2]; [4]): 2.02 µmol/min/mg | Specific Activity (xylose isomerase [2]; soluble whole cell extract, xylose 40-500 mM, 30° C., pH 7.5): 2.02 µmol/min/mg | Active? (yes/no) (xylose isomerase [1]): Yes

B1: R. flavefaciens, FD-1 XI: xylose isomerase of Ruminococcus flavefaciens FD1 (ZP_06143883.1, SEQ ID NO: 110) (protein, listed as Ruminococcus flavefaciens)
chain: MEFFKNISKIPYEGKDSTNPLAFKYYNPDEVIDGKKMRDIMKFALSWWHTMGGDGTDMFGCGTADKTWGENDPAARAKAKVDAAFEIMQKLSIDYFCFHDRDLSPEYGSLKDTNAQLDIVTDYIKAKQAETGLKCLWGTAKCFDHPRFMHGAGTSPSADVFAFSAAQIKKALESTVKLGGTGYVFWGGREGYETLLNTNMGLELDNMARLMKMAVEYGRSIGFKGDFYIEPKPKEPTKHQYDFDTATVLGFLRKYGLDKDFKMNIEANHATLAQHTFQHELCVARTNGAFGSIDANQGDPLLGWDTDQFPTNIYDTTMCMYEVIKAGGFTNGGLNFDAKARRGSFTPEDIFYSYIAGMDAFALGYKAASKLIADGRIDSFISDRYASWSEGIGLDIISGKADMAALEKYALEKGEVTDSISSGRQELLESIVNNVIFNL
xylose isomerase activity (slope) of candidate enzymes (FIG. 25) (xylose isomerase [2]; 100 μg total soluble crude extract, saturating xylose (500 mM)): highest activity of the candidates tested | specific activity relative to the native XI control activity (xylose isomerase [2]; Michaelis Mentin plots, xylose between 40 and 500 nM as printed): greater than 2 fold

B2: Codon-optimized EDA from P. aeruginosa: codon-optimized version of the P. aeruginosa EDA gene (protein, UniProt O68283 1-220, looked up)
2-dehydro-3-deoxy-phosphogluco …: MHNLEQKTARIDTLCREARILPVITIDREADILPMADALAAGGLTALEITLRTAHGLTAIRRLSEERPHLRIGAGTVLDPRTFAAAEKAGASFVVTPGCTDELLRFALDSEVPLLPGVASASEIMLAYRHGYRRFKLFPAEVSGGPAALKAFSGPFPDIRFCPTGGVSLNNLADYLAVPNVMCVGGTWMLPKAVVDRGDWAQVERLSREALERFAEHRRH
modifications: codon-optimized gene
EDA activity (comparison in words) ([3]; first experiment): slight improvement over the native sequence

B3: Clostridium phytofermentans: xylose isomerase of this donor organism (protein)
chain: MKNYFPNVPEVKYEGPNSTNPFAFKYYDANKVVAGKTMKEHCRFALSWWHTLCAGGADPFGVTTMDRTYGNITDPMELAKAKVDAGFELMTKLGIEFFCFHDADIAPEGDTFEESKKNLFEIVDYIKEKMDQTGIKLLWGTANNFSHPRFMH
modifications: Clostridium phytofermentans
notes: xylose isomerase of this donor organism
Active? (yes/no) (xylose isomerase [1]): Yes

B4: E. coli EDA: 2-keto-3-deoxygluconate-6-phosphate aldolase of Escherichia coli expressed in yeast (protein, UniProt P0A955 1-213, looked up)
KHG/KDPG aldolase: MKNWKTSAESILTTGPVVPVIVVKKLEHAVPMAKALVAGGVRVLEVTLRTECAVDAIRAIAKEVPEAIVGAGTVLNPQQLAEVTEAGAQFAISPGLTEPLLKAATEGTIPLIPGISTVSELMLGMDYGLKEFKFFPAEANGGVKALQAIAGPFSQVRFCPTGGISPANYRDYLALKSVLCIGGSWLVPADALEAGDYDRITKLAREAVEGAKL
EDA activity, repeated experiment (FIG. 24) ([3]; 100 μg of EDD and 25 μg of EDA cell lysates (5 μg of E. coli EDA), linear range): most active of those EDA's tested | EDA activity (comparison in words) ([3]; first experiment): higher activity as compared to the other EDA activities evaluated herein | EDA activity relative to the EDA from P. aeruginosa ([3]; first experiment, E. coli EDA slope outside linear range, underestimated): approximately 16 fold

B5: XI-Rp5: chimera: first 5 amino acids of Piromyces xylose isomerase fused to Ruminococcus xylose isomerase (SEQ ID NO. 56) (protein)
chain: MAKEYFSNIGKIQYQGPKSTDPLSFKYYNPEEVINGKTMREHLKFALSWWHTMGGDGTDMFGCGTTDKTWGQSDPAARAKAKVDAAFEIMDKLSIDYYCFHDRDLSPEYGSLKATNDQLDIVTDYIKEKQGDKFKCLWGTAKCFDHPRFMHGAGTSPSADVFAFSAAQIKKALESTVKLGGNGYVFWGGREGYETLLNTNMGLELDNMARLMKMAVEYGRSIGFKGDFYIEPKPKEPTKHQYDFDTATVLGFLRKYGLDKDFKMNIEANHATLAQHTFQHELRVARDNGVFGSIDANQGDVLLGWDTDQFPTNIYDTTMCMYEVIKAGGFTNGGLNFDAKARRGSFTPEDIFYSYIAGMDAFALGFRAALKLIEDGRIDKFVADRYASWNTGIGADIIAGKADFASLEKYALEKGEVTASLSSGRQEMLESIVNNVLFSL
Km (xylose isomerase [2]; [4]): 66.5 mM | Specific Activity (xylose isomerase [2]; [4]): 1.45 µmol/min/mg

B6: Bacillus subtilis: xylose isomerase of this donor organism (protein, UniProt P0CI80 1-445, looked up)
Xylose isomerase: MAQSHSSSINYFGSANKVVYEGKDSTNPLAFKYYNPQEVIGGKTLKEHLRFSIAYWHTFTADGTDVFGAATMQRPWDHYKGMDLAKMRVEAAFEMFEKLDAPFFAFHDRDIAPEGSTLKETNQNLDMIMGMIKDYMRNSGVKLLWNTANMFTNPRFVHGAATSCNADVFAYAAAQVKKGLETAKELGAENYVFWGGREGYETLLNTDLKFELDNLARFMHMAVDYAKEIGYTGQFLIEPKPKEPTTHQYDTDAATTIAFLKQYGLDNHFKLNLEANHATLAGHTFEHELRMARVHGLLGSVDANQGHPLLGWDTDEFPTDLYSTTLAMYEILQNGGLGSGGLNFDAKVRRSSFEPDDLIYAHIAGMDAFARGLKVAHKLIEDRVFEDVIQHRYRSFTEGIGLEIIEGRANFHTLEQYALNHKSIKNESGRQEKLKAILNQYILEV
Active? (yes/no) (xylose isomerase [1]): No

B7: Escherichia coli: xylose isomerase of this donor organism (protein, UniProt P00944 1-440, looked up)
Xylose isomerase: MQAYFDQLDRVRYEGSKSSNPLAFRHYNPDELVLGKRMEEHLRFAACYWHTFCWNGADMFGVGAFNRPWQQPGEALALAKRKADVAFEFFHKLHVPFYCFHDVDVSPEGASLKEYINNFAQMVDVLAGKQEESGVKLLWGTANCFTNPRYGAGAATNPDPEVFSWAATQVVTAMEATHKLGGENYVLWGGREGYETLLNTDLRQEREQLGRFMQMVVEHKHKIGFQGTLLIEPKPQEPTKHQYDYDAATVYGFLKQFGLEKEIKLNIEANHATLAGHSFHHEIATAIALGLFGSVDANRGDAQLGWDTDQFPNSVEENALVMYEILKAGGFTTGGLNFDAKVRRQSTDKYDLFYGHIGAMDTMALALKIAARMIEDGELDKRIAQRYSGWNSELGQQILKGQMSLADLAKYAQEHHLSPVHQSGRQEQLENLVNHYLFDK
Active? (yes/no) (xylose isomerase [1]): No
